Results as given in PMC10480196, “Glycerol biosynthetic pathway plays an essential role in proliferation and antioxidative defense in the human enteric protozoan parasite Entamoeba histolytica” (Scientific Reports, 2023).

Columns and labels:
Assay type in all cases: biochemical, Entamoeba histolytica
[1] = substrate: O=P(O)(O)OC[C@H](O)CO; assay: purified protein; conditions: reverse reaction, 1 mM ADP, 5 mM MgSO4, 1 mM EDTA, 50 mM Tris HCl pH 7.5
[2] = substrate: Nc1ncnc2c1ncn2[C@@H]1O[C@H](COP(=O)(O)OP(=O)(O)O)[C@@H](O)[C@H]1O; assay: purified protein; conditions: reverse reaction, 40 mM G3P, 5 mM MgSO4, 1 mM EDTA, 50 mM Tris HCl pH 7.5
[3] = substrate: OCC(O)CO; assay: coupled fluorescence assay (ADP hexokinase, G6P dehydrogenase, diaphorase; resazurin reduction); conditions: forward reaction, 2 mM ATP, 5 mM MgCl2, 50 mM Tris HCl pH 7.5, 37 °C, 10 mM N-ethylmaleimide
Excerpt: (§1) coupled fluorescence assay (ADP hexokinase, G6P dehydrogenase, diaphorase; resazurin reduction) on EhGK (rEhGK, recombinant E. histolytica glycerol kinase)

[4] = substrate: Nc1ncnc2c1ncn2[C@@H]1O[C@H](COP(=O)(O)OP(=O)(O)OP(=O)(O)O)[C@@H](O)[C@H]1O; assay: as above; conditions: forward reaction, 2 mM glycerol, 5 mM MgCl2, 50 mM Tris HCl pH 7.5, 37 °C, 10 mM N-ethylmaleimide
Excerpt: as §1

B1: EhGK (rEhGK, recombinant E. histolytica glycerol kinase) (Entamoeba histolytica HM-1:IMSS) (protein)
chain: MKYILAIDQGTTSTRVILFDEKCQSIHTEQEEFDSIFPHPGWVEQDPEVIYTSVVNLMKKCLVNTGINKEDIAAIGITNQRETTVMWDKRTGKPIYNAIVWQSKQSGNETSYLMEKGYEEIFQSKTGLVLNPYFSASKIMWIFNNVEGAKALAEEGVLLFGTIDTWIIYNLTGGQSHSTDISNAARTLLFNIYEKKWDDELLAKTNIPKSILPIVKQSSDDFGIVSTIQEFNGIHITGVAGDQQASLFGHGSPIGGCKSTYGTGCFVVKNIGDTIKEIPKGLLATVGWEINGKITYALEGTVMTAGAALKWIRDIGILKDYNEISKIVTSKNGGVYFVPAFQGLGTPYWDDDVRGIIVGLTSGTGKGELVRATLESIALQCAQVIEIMGKINEIKVDGGVSRSDCMLQFQADICNCTVIRLKEKEITAMGAAMLAGLYVHLFKEDELDSMRVIEHVFKPQMSEEERKQIFSVWNKAVESARSFVH
Km [1]: 8710 ± 2460 µM
Vmax [1]: 1.28 µmol/min/mg
Km [2]: 140 ± 40 µM
Vmax [2]: 1.2 µmol/min/mg
Km [3]: 160 ± 30 µM
Vmax [3]: 1.48 µmol/min/mg
Km [4]: 230 ± 30 µM
Vmax [4]: 1.3 µmol/min/mg
